The target of one test is T1, Human Sputum Elastase (Homo sapiens, UniProt P08246).
T1 construct: Human Sputum Elastase, product No. SE-563 EPC, Inc., Pacific, Mo; USA, Lot 85701; purchased EPC, Inc., Pacific, Mo; USA SE-563; host or cells: human sputum
T1 sequence (P08246 30-267): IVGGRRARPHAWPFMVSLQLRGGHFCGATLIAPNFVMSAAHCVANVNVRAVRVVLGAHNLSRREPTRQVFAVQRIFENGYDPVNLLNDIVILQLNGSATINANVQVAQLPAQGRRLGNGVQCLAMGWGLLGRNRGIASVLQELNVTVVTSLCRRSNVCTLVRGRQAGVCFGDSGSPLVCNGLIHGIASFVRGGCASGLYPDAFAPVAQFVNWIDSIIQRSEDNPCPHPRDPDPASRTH
Nature of the test: Elastase assay (spectrophotometric, p-nitroanilide substrate). It is filed as biochemical. The method, then:
(§1) The inhibitory activity of the polypeptides of the present invention can be easily assayed using in vitro assays. In these types of spectrophotometric assays the activity of the serine protease is measured toward an appropriate p-nitroanilide substrate in the presence and absence of the peptide inhibitor. The enzyme catalyzed hydrolysis of the peptide p-nitroanilide substrate produces p-nitroanaline which results in an increase in absorbance which is monitored in the range of 405 to 410 nm. The rate of increase in absorbance is a measure of the enzymatic activity and the decrease in this rate relative to a suitable control is used to ascertain inhibition. The general assay procedure and details of the particular assays employed in the examples are provided in the Appendix following the examples. It is also possible to test the polypeptides in a functionally oriented assay that emulates in vivo conditions. Such an inhibition assay for elastase is also described in the Appendix.
(§2) Generalized Protocol Spectrophotometric Assays:
(§3) (1) Pipette 100 μl of enzyme solution into a disposable polystyrene cuvette (1 cm optical path length).
(§4) (2) Add (1900-X) μl of bufferto the cuvette, where X is the volume of test solution in microliters that is added in the next step.
(§5) Add X μl of test solution to the cuvette, where X ranges from 0 μl for the control to a maximum of about 500 μl. Incubate the solution for a period of 1 to 5 minutes at ambient temperature.
(§6) (4) Add 100 μl of substrate solution to the cuvette. Mix the contents by covering the cuvette with a piece of paraffin film and repeatedly inverting for a period of 5 to 15 seconds.
(§7) (5) Record the change in absorbance for about 5 minutes at either 405 or 410 nm, depending on the assay, with a spectrophotometer equipped with a suitable recording device.
(§8) The percent inhibition is calculated from the formula [formula] where (ΔA/min) is the initial rate of absorbance change.
(§9) (7) For more accurate quantitative determinations temperature control of the cuvette holders and the reagent solutions can be instituted.
(§10) (8) The test solution can be crude oxidized peptide prepared as described above, fractions from a chromatographic separation or purified polypeptides.
(A) Buffer Solution - Tris-NaCl buffer consisting of 0.1M Tris-HCl pH 7.5 at 25° C. containing 0.5M NaCl and 0.01% (w/v) NaNs.
(B) Substrate Solution - Dissolve 45.5 mg of N-succinyl-L-alanyl-L-alanyl-L-alanine p-nitroanilide in 1 ml of 1-methyl-2-pyrrolidinone. Add 32 ml of Tris-NaCl buffer.
(C) Enzyme Solution - Human Sputum Elastase, product No. SE-563 EPC, Inc., Pacific, Mo. USA, Lot 85701. Dissolve 1 mg in 1 ml of Tris-NaCl buffer. Store on ice or at 4° C.
(D) Test Solution - See general protocol, number 8.
Procedure: Use the above solutions in the general protocol described above.
(1) Buffer Solution - Tris-NaCl buffer -see Method 1.
(2) Substrate Solution - Dissolve 50 mg of 3-carbomethoxypropionyl-L-alanyl-L-alanyl-L-[…]-L-valine p-nitroanilidein 1 ml of 1-methyl-2-pyrrolidinone. Add 32 ml of Tris-NaCl buffer.
(3) Enzyme Solution - Human sputum elastase, product No. SE-563, EPC, inc. Pacific, Mo. USA, Lot 85071. Prepare a sample at a concentration of 0.01 mg per ml of Tris-NaCl buffer. Store on ice.
(4) Test Solution - general protocol, number 8.
Procedure: Use the above solutions in the general protocol.
(1) Porcine pancreatic elastase may be substituted for human elastase when it is desired to test for an inhibitor of the former.
(2) The activity of an elastase preparation can be calculated as [formula]
(3) The Tris-NaCl buffer also can be pH 8.0 with 0.03% sodium azide. Results should be compared at a single pH.

The target of another test is T2, Human Sputum Cathepsin G (Homo sapiens, UniProt P08311).
T2 construct: Human Sputum Cathepsin G (Product No. SG-45, EPC, Inc., Pacific, Mo.); purchased EPC, Inc., Pacific, Mo; SG-45; host or cells: human sputum
T2 sequence (P08311 21-255): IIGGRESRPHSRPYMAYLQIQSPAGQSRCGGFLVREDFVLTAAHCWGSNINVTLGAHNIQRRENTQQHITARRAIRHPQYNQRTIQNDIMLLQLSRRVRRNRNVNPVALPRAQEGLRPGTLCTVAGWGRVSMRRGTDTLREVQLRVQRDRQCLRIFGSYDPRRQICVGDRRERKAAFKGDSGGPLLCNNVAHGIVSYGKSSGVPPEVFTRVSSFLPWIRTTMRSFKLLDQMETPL
Nature of the test: Cathepsin G assay (spectrophotometric, p-nitroanilide substrate). It is filed as biochemical. To be noted: inhibitor/protease ratio between about 10/1 and 50/1. As for the experimental part:
as §1, §2, §3, §4, §5, §6, §7, §8, §9, §10
(A) Buffer Solution - Tris-NaCl buffer consisting of 0.1M Tris-HCl, pH 8.0 containing 0.5M NaCl and 0.03% sodium azide.
(B) Substrate solution - Dissolve 50 mg of N-succinyl-L-alanyl-L-alanyl-L-prolyl-L-phenylalanine p-nitroanilide in 1 ml of 1-methyl-2-pyrrolidinone and dilute to 50 ml with Tris-NaCl buffer.
(C) Enzyme Solution - Human Sputum Cathepsin G (Product No. SG-45, EPC, Inc., Pacific, Mo.). Dissolve 1 mg of protein per 1 ml of Tris-NaCl buffer. Store on ice or at 4° C.
(D) Test Solutions - See the general protocol, number 8.
Procedure: Use the above solution in the general protocol described above. […]

Turning to “RVCPVILMKCKKDSDCLAECVCLEHGYCG (RVCPVILMKCKKDSDCLAECVCLEHGYCG) [Peptide 8]”, the “titration curve for elastase inhibition” value with Human Sputum Elastase (FIG. 2) is recorded as “essentially stochiometric inhibition”. In the test with Human Sputum Elastase (inhibitor/protease ratio between about 10/1 and 50/1), the “Inhibitory Activity Elastase” value is reported as “++ (Represents greater than 50% inhibition)”. Further, the “Inhibitory Activity Cathepsin G” value with Human Sputum Cathepsin G was “- (Represents less than 10% inhibition)”.

Values taken from patent publication US4829052A, “Serine protease inhibitors” (Monsanto Company, priority 1987, dated 1989).
